Experimental data from paper PMC6070450, “The tetraamine chelator outperforms HYNIC in a new technetium-99m-labelled somatostatin receptor 2 antagonist” (EJNMMI Research, 2018).
Where two headings read alike, the source gives them in different places.

What was measured:
[1] = in vivo; design: species or system mice; conditions: female, athymic nude, mouse, iv, 10 pmol, total radioactivity
Method: All animal experiments were conducted in compliance with Swiss animal protection laws and associated regulations. The protocol was approved by the Cantonal Veterinary Ethics Committee of the University of Basel (approval #789). Female athymic nude mice (4–6 weeks old) were injected subcutaneously (s.c.) in the right shoulder with 10^7 HEK293-rsst2 cells in 100 μL sterile PBS. The tumours were allowed to grow for 14–18 days (tumour weight 100–200 mg).
The mice were injected into the tail vein with 100 μL/10 pmol/0.37 MBq of ^177Lu-SS-03 or ^99mTc-SS-04 and were euthanised at 1, 4, and 24 h post-injection (p.i.). Organs of interest and blood were collected, rinsed of excess blood, blotted dry, weighed, and counted in a γ-counter. To determine nonspecific uptake, three animals were pre-injected with 20 nmol of the relevant unlabelled peptide in 0.9% NaCl solution (0.1 mL); after 5 min, the radiopeptide was injected and the percentage of injected activity per gram (%IA/g) was calculated for each tissue. The total counts injected per animal were determined by extrapolation from counts of an aliquot taken from the injected solution as a standard.

[2] = type: physicochemical
Method: The distribution coefficients (log D) were determined using the shake-flask method (see Additional file 1). […]
equivalents of DIPEA were used. The cleavage and deprotection of the peptide-chelator conjugates was accomplished by incubating for 1.5h in TFA:thioanisole:triisopropylsilane:H2O 95:2:2:1. The resin was then filtered and washed with the above mixture, after which the filtrate was evaporated and triturated with diethyl ether to give the crude product. This was purified by semi-preparative HPLC to obtain the corresponding chelator-peptide conjugate with purity ≥97%.
Radiolabeling of Chelator-Peptide Conjugates
177Lu-SS-03: 10 µg of SS-03 in 300 µL sodium acetate buffer (0.4 mol/L, pH 5.0) were […]
phosphate buffer pH 11.5 (50 μL) and 0.1 M sodium citrate (5 μL) followed by SS-04 solution (30 μg, 25 μL) and freshly prepared SnCl2 solution in ethanol (30 μg, 25 μL). […]
99mTc-SS-05: 30 µg SS05 was added to 1 mL aqueous edda/tricine solution (5 mg edda, 15 mg tricine). […] All radiolabeled peptides were analyzed with analytical HPLC. […]
Each radiopeptide was added to a presaturated 1/1mixture of PBS/n-octanol, at a concentration of 100 nmol/L. The mixtures were vigorously shaken for 10 min and then centrifuged. The activity concentrations of equal volume samples of both phases were measured in a γ-counter and the partition coefficient (LogD) was calculated. […]

[3] = target: T1, sst4 (Homo sapiens, UniProt P31391); test: Receptor autoradiography binding affinity, sst4; conditions: membrane pellet sections of sst4-expressing CCL39 cells; mean ± SEM, n ≥ 3
T1 construct: expressed in transfected cells; host or cells: CCL39 cells (gift of Dr. D. Hoyer, Novartis)
Method: (§1) Cell membrane pellets were prepared from human sst1-expressing Chinese hamster ovary cells (kindly provided by Drs. T. Reisine and G. Singh, University of Pennsylvania, Philadelphia, Pa.); sst2-, sst3-, and sst4-expressing CCL39 cells (kindly provided by Dr. D. Hoyer, Novartis Pharma, Basel, Switzerland); and sst5-expressing human embryonic kidney 293 (HEK293) cells (kindly provided by Prof. Stefan Schulz, University of Jena, Germany) and stored at − 80 °C. Quantitative receptor autoradiography was performed on 20-μm-thick membrane pellet sections and quantitated as previously described.

[4] = target: T2, sst3 (Homo sapiens, UniProt P32745); test: Receptor autoradiography binding affinity, sst3; conditions: membrane pellet sections of sst3-expressing CCL39 cells; mean ± SEM, n ≥ 3
T2 construct: expressed in transfected cells; host or cells: CCL39 cells (gift of Dr. D. Hoyer, Novartis)
Method: as §1

[5] = target: T3, sst2 (Homo sapiens, UniProt P30874); test: Receptor autoradiography binding affinity, sst2; conditions: membrane pellet sections of sst2-expressing CCL39 cells; mean ± SEM, n ≥ 3
T3 construct: expressed in transfected cells; host or cells: CCL39 cells (gift of Dr. D. Hoyer, Novartis)
Method: as §1

[6] = target: T4, sst1 (Homo sapiens, UniProt P30872); test: Receptor autoradiography binding affinity, sst1; conditions: membrane pellet sections of human sst1-expressing CHO cells; mean ± SEM, n ≥ 3
T4 construct: expressed in transfected cells; host or cells: Chinese hamster ovary cells (gift of Drs. T. Reisine and G. Singh)
Method: as §1

[7] = target: T5, sst5 (Homo sapiens, UniProt P35346); test: Receptor autoradiography binding affinity, sst5; conditions: membrane pellet sections of sst5-expressing HEK293 cells; mean ± SEM, n ≥ 3
T5 construct: expressed in transfected cells; host or cells: HEK293 cells (gift of Prof. Stefan Schulz, University of Jena)
Method: as §1

[8] = target: T5, sst5; conditions: mean ± SEM; cited from earlier work
Source text: Table 2 Binding affinities (IC50, nM) of chelator-peptide conjugates | column: IC50 (nM)* / sst5

[9] = target: T1, sst4; conditions: mean ± SEM; cited from earlier work
Source text: Table 2 Binding affinities (IC50, nM) of chelator-peptide conjugates | column: IC50 (nM)* / sst4

[10] = target: T2, sst3; conditions: mean ± SEM; cited from earlier work
Source text: Table 2 Binding affinities (IC50, nM) of chelator-peptide conjugates | column: IC50 (nM)* / sst3

[11] = target: T4, sst1; conditions: mean ± SEM; cited from earlier work
Source text: Table 2 Binding affinities (IC50, nM) of chelator-peptide conjugates | column: IC50 (nM)* / sst1

[12] = target: T3, sst2; conditions: mean ± SEM; cited from earlier work
Source text: Table 2 Binding affinities (IC50, nM) of chelator-peptide conjugates | column: IC50 (nM)* / sst2

T5 sequence (P35346 whole entry): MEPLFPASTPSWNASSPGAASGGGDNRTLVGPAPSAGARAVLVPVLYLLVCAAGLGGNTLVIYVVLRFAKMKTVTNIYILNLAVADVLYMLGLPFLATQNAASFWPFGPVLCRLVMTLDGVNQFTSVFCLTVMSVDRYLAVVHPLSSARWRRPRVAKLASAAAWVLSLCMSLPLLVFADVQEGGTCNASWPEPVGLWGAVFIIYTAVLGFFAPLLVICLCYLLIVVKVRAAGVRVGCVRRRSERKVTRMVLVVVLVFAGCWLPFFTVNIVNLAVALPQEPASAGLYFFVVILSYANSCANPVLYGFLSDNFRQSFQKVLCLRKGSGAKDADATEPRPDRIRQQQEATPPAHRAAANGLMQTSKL
T3 sequence (P30874 whole entry): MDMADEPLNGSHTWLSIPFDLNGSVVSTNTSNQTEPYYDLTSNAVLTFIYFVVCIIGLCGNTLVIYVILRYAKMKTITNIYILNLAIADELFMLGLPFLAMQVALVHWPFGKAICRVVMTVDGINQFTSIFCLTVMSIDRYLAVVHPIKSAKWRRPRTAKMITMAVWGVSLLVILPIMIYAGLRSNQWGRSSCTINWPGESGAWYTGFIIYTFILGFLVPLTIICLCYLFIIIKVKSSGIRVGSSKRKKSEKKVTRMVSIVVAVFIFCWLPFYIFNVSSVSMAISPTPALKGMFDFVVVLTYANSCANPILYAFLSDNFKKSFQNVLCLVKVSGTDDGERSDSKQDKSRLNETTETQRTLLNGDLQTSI
T1 sequence (P31391 whole entry): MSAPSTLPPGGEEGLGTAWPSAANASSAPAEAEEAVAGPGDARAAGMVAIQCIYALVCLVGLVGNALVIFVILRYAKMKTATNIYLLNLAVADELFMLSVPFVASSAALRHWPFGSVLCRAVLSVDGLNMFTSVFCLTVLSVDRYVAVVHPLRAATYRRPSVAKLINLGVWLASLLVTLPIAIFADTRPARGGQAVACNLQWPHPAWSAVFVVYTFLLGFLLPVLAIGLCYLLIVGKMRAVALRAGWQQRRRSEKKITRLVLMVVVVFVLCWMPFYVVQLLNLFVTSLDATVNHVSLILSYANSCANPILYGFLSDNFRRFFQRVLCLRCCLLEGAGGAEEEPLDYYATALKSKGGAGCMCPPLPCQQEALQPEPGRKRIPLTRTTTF
T4 sequence (P30872 whole entry): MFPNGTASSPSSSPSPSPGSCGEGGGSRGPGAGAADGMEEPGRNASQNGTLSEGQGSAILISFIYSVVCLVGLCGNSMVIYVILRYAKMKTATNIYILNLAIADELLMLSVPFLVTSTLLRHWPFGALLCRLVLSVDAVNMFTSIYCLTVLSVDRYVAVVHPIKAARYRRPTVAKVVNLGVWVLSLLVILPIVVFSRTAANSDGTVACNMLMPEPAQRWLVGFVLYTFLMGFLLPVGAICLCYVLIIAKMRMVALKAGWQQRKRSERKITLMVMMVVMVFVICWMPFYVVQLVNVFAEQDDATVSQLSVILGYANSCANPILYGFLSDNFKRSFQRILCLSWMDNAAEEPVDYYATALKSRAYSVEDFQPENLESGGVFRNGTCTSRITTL
T2 sequence (P32745 whole entry): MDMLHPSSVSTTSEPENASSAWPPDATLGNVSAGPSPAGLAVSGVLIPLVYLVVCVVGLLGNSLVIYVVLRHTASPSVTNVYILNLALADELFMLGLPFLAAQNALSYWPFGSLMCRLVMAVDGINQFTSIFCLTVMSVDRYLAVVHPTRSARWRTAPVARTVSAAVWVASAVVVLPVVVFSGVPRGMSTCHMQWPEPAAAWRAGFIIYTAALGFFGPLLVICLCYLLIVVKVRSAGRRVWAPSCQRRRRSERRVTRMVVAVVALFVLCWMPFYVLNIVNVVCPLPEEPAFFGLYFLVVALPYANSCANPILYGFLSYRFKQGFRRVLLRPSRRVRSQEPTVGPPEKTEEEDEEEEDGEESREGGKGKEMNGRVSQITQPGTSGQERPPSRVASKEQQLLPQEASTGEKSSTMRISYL

Q: Which results are given for `C[C@@H](O)[C@@H]1NC(=O)[C@H](CCCCN)NC(=O)[C@@H](Cc2c[nH]c3ccccc23)NC(=O)[C@H](Cc2ccc(O)cc2)NC(=O)[C@H](NC(=O)[C@H](Cc2ccc(Cl)cc2)NC(=O)CN2CCN(CC(=O)O)CCN(CC(=O)O)CCN(CC(=O)O)CC2)CSSC[C@@H](C(=O)N[C@H](Cc2ccc(O)cc2)C(N)=O)NC1=O` [^177Lu-SS-03, metal not drawn]?
A: tissue uptake at 1 h ([1]; Adrenal uptake): 3.7 ± 0.63 %ID/g; tissue uptake at 4 h ([1]; Adrenal uptake): 2.9 ± 0.46 %ID/g; tissue uptake at 24 h ([1]; Adrenal uptake): 1.16 ± 0.46 %ID/g; tissue uptake at 1 h ([1]; Blood uptake): 0.57 ± 0.04 %ID/g; tissue uptake at 4 h ([1]; Blood uptake): 0.21 ± 0.04 %ID/g; tissue uptake at 24 h ([1]; Blood uptake): < 0.1 %ID/g; tissue uptake at 1 h ([1]; Bone uptake): 4.11 ± 0.53 %ID/g; tissue uptake at 4 h ([1]; Bone uptake): 2.77 ± 1.06 %ID/g; tissue uptake at 24 h ([1]; Bone uptake): 1.25 ± 0.16 %ID/g; tissue uptake at 1 h ([1]; Heart uptake): 0.69 ± 0.12 %ID/g; tissue uptake at 4 h ([1]; Heart uptake): 0.38 ± 0.07 %ID/g; tissue uptake at 24 h ([1]; Heart uptake): 0.11 ± 0.04 %ID/g; tissue uptake at 1 h ([1]; Intestine uptake): 3.13 ± 1.16 %ID/g; tissue uptake at 4 h ([1]; Intestine uptake): 2.28 ± 0.31 %ID/g; tissue uptake at 24 h ([1]; Intestine uptake): 0.27 ± 0.06 %ID/g; tissue uptake at 1 h ([1]; Kidney uptake): 15.2 ± 1.86 %ID/g; tissue uptake at 4 h ([1]; Kidney uptake): 17 ± 1.81 %ID/g; tissue uptake at 24 h ([1]; Kidney uptake): 7.35 ± 1.66 %ID/g; tissue uptake at 1 h ([1]; Liver uptake): 3 ± 0.66 %ID/g; tissue uptake at 4 h ([1]; Liver uptake): 1.75 ± 0.22 %ID/g; tissue uptake at 24 h ([1]; Liver uptake): 0.47 ± 0.07 %ID/g; tissue uptake at 1 h ([1]; Lung uptake): 13.2 ± 4.49 %ID/g; tissue uptake at 4 h ([1]; Lung uptake): 6.71 ± 1.37 %ID/g; tissue uptake at 24 h ([1]; Lung uptake): 0.74 ± 0.22 %ID/g; tissue uptake at 1 h ([1]; Muscle uptake): 0.22 ± 0.06 %ID/g; tissue uptake at 4 h ([1]; Muscle uptake): 0.12 ± 0.02 %ID/g; tissue uptake at 24 h ([1]; Muscle uptake): 0.07 ± 0.02 %ID/g; tissue uptake at 1 h ([1]; Pancreas uptake): 72.6 ± 13.8 %ID/g; tissue uptake at 4 h ([1]; Pancreas uptake): 54.5 ± 7.28 %ID/g; tissue uptake at 24 h ([1]; Pancreas uptake): 3.03 ± 0.62 %ID/g; tissue uptake at 1 h ([1]; Spleen uptake): 1.51 ± 0.19 %ID/g; tissue uptake at 4 h ([1]; Spleen uptake): 1.42 ± 0.77 %ID/g; tissue uptake at 24 h ([1]; Spleen uptake): 0.33 ± 0.06 %ID/g; tissue uptake at 1 h ([1]; Stomach uptake): 48.7 ± 13.1 %ID/g; tissue uptake at 4 h ([1]; Stomach uptake): 30.2 ± 4.25 %ID/g; tissue uptake at 24 h ([1]; Stomach uptake): 6.02 ± 1.4 %ID/g; tissue uptake at 1 h ([1]; Tumour uptake): 23.6 ± 1.28 %ID/g; tissue uptake at 4 h ([1]; Tumour uptake): 31.7 ± 4 %ID/g; tissue uptake at 24 h ([1]; Tumour uptake): 26.3 ± 4.42 %ID/g; tissue to tissue ratio at 1 h ([1]; Tumour/blood ratio): 41.3; tissue to tissue ratio at 4 h ([1]; Tumour/blood ratio): 150; tissue to tissue ratio at 24 h ([1]; Tumour/blood ratio): 361; tissue to tissue ratio at 1 h ([1]; Tumour/bone ratio): 5.7; tissue to tissue ratio at 4 h ([1]; Tumour/bone ratio): 11.5; tissue to tissue ratio at 24 h ([1]; Tumour/bone ratio): 21.1; tissue to tissue ratio at 1 h ([1]; Tumour/kidney ratio): 1.56; tissue to tissue ratio at 4 h ([1]; Tumour/kidney ratio): 1.86; tissue to tissue ratio at 24 h ([1]; Tumour/kidney ratio): 3.58; tissue to tissue ratio at 1 h ([1]; Tumour/liver ratio): 7.9; tissue to tissue ratio at 4 h ([1]; Tumour/liver ratio): 18.1; tissue to tissue ratio at 24 h ([1]; Tumour/liver ratio): 55.8; tissue to tissue ratio at 1 h ([1]; Tumour/muscles ratio): 110; tissue to tissue ratio at 4 h ([1]; Tumour/muscles ratio): 259; tissue to tissue ratio at 24 h ([1]; Tumour/muscles ratio): 372; log D [2]: − 2.35 ± 0.22

Q: Which results are given for `C[C@@H](O)[C@@H]1NC(=O)[C@H](CCCCN)NC(=O)[C@@H](Cc2c[nH]c3ccccc23)NC(=O)[C@H](Cc2ccc(O)cc2)NC(=O)[C@H](NC(=O)[C@H](Cc2ccc(Cl)cc2)NC(=O)C(CNCCN)CNCCN)CSSC[C@@H](C(=O)N[C@H](Cc2ccc(O)cc2)C(N)=O)NC1=O` [SS-04, N4-(4-Cl)-Phe-Cyclo(D-Cys-Tyr-D-Trp-Lys-Thr-Cys)-D-Tyr-NH2]?
A: IC50 [3]: 171 ± 35 nM; IC50 [4]: 720 ± 74 nM; IC50 [5]: 5.3 ± 0.17 nM; IC50 [6]: > 1000 nM; IC50 [7]: 228 ± 73 nM

Q: With “DOTA-pNO2Phe-cyclo[D-Cys-Tyr-D-Trp-Lys-Thr-Cys]-D-Tyr-NH2 (disulfide) [DOTA-sst2-ANT]” as the compound, how does the IC50 [8] read?
A: > 1000 nM

Q: And the IC50 [9]?
A: 287 ± 27 nM

Q: And the IC50 [10]?
A: > 1000 nM

Q: What about the IC50 [11] of the same compound?
A: > 1000 nM

Q: What about the IC50 [12] of the same compound?
A: 1.5 ± 0.4 nM

Q: With `C[C@@H](O)[C@@H]1NC(=O)[C@H](CCCCN)NC(=O)[C@@H](Cc2c[nH]c3ccccc23)NC(=O)[C@H](Cc2ccc(O)cc2)NC(=O)[C@H](NC(=O)[C@H](Cc2ccc(Cl)cc2)NC(=O)CN2CCN(CC(=O)O)CCN(CC(=O)O)CCN(CC(=O)O)CC2)CSSC[C@@H](C(=O)N[C@H](Cc2ccc(O)cc2)C(N)=O)NC1=O` [SS-03, DOTA-(4-Cl)-Phe-Cyclo(D-Cys-Tyr-D-Trp-Lys-Thr-Cys)-D-Tyr-NH2] as the compound, how does the IC50 [3] read?
A: 404 ± 92 nM

Q: And the IC50 [4]?
A: > 1000 nM

Q: What about the IC50 [5] of the same compound?
A: 1.7 ± 0.06 nM

Q: What about the IC50 [6] of the same compound?
A: > 1000 nM

Q: And the IC50 [7]?
A: 564 ± 174 nM

Q: For `C[C@@H](O)[C@@H]1NC(=O)[C@H](CCCCN)NC(=O)[C@@H](Cc2c[nH]c3ccccc23)NC(=O)[C@H](Cc2ccc(O)cc2)NC(=O)[C@H](NC(=O)[C@H](Cc2ccc(Cl)cc2)NC(=O)c2ccc(NN)nc2)CSSC[C@@H](C(=O)N[C@H](Cc2ccc(O)cc2)C(N)=O)NC1=O` [^99mTc-SS-05, metal not drawn], which “log D” value [2] is on record?
A: − 2.03 ± 0.27
